Assay results published in a protein production outcome set (Wang et al. 2014).

Test: label from the status in PepcDB records

| Sequence | protein production |
| --- | --- |
| MSLSSVKDFPKIKAIRSFIIGGVGSGGDYHNVKGGHWLIDSDISTPASKWEQYKKSRTSWGINVLGSFLVEIEATDGTVGFATGFGGPPACWLVHQHFERFLIGADPRNTNLLFEQMYRASMFYGRKGLPIAVISVIDLALWDLLGKVRNEPVYRLIGGATKERLDFYCTGPEPTAAKAMGFWGGKVPLPFCPDDGHEGLRKNVEFLRKHREAVGPDFPIMVDCYMSLNVSYTIELVKACLDLNINWWEECLSPDDTDGFALIKRAHPTVKFTTGEHEYSRYGFRKLVEGRNLDIIQPDVMWLGGLTELLKVAALAAAYDVPVVPHASGPYSYHFQISQPNTPFQEYLANSPDGKSVLPVFGDLFIDEPIPTKGYLTTADLDKPGFGLTINPAARAKLIPSDYLFKVPEIPQNLSTGKEIKSNEQPDKPNGTLDSLAAKVESLTTSTSSEGHHHHHH | not failed |
| MSLSTFNRIHLVVLDSVGIGAAPDANNFSNAGVPDGASDTLGHISKTVGLNVPNMAKIGLGNIPRDTPLKTVPAENHPTGYVTKLEEVSLGKDTMTGHWEIMGLNITEPFDTFWNGFPEEIISKIEKFSGRKVIREANKPYSGTAVIDDFGPRQMETGELIIYTSADPVLQIAAHEDVIPLDELYRICEYARSITLERPALLGRIIARPYVGKPRNFTRTANRHDYALSPFAPTVLNKLADAGVSTYAVGKINDIFNGSGITNDMGHNKSNSHGVDTLIKTMGLSAFTKGFSFTNLVDFDALYGHRRNAHGYRDCLHEFDERLPEIIAAMKVDDLLLITADHGNDPTYAGTDHTREYVPLLAYSPSFTGNGVLPVGHYADISATIADNFGVDTAMIGESFLDKLIEGHHHHHH | not failed |
| MSLSYVHTEIQNDALYITLDYPEKKNGLDAELGTSLLEAIRAGNNETSIHSIILQSKHRAYFSSGPRLEDLLICASDQSDVRLREVLHVLNHCVLEIFTSPKVTVALINGYAYGGGFNMMLACDRRIALRRAKFLENFHKMGISPDLGASYFLPRIIGYEQTMNLLLEGKLFTSEEALRLGLIQEICENKQELQERVKNYLKAVSEGYVPAIAATKKLLKGKAAEELKQQLEQETEELVALFKQTEIKKRLEALVEGHHHHHH | not failed |
| MSLTADPPACTVPAAGVSSTHKLVNGGAEKIVFKIKSSNNNEYRIAPVFGFVDPSGSKDVVITRTAGAPKEDKLVVHFASAPADATDAQAAFVAVAPAGTVTIPMSATA | not failed |
| MSLTARSVVLSVLLGAHPAWATASELIQLTADFGIKETTLRVALTRMVGAGDLVRSADGYRLSDRLLARQRRQDEAMRPRTRAWHGNWHMLIVTSIGTDARTRAALRTCMHHKRFGELREGVWMRPDNLDLDLESDVAARVRMLTARDEAPADLAGQLWDLSGWTEAGHRLLGDMAAATDMPGRFVVAAAMVRHLLTDPMLPAELLPADWPGAGLRAAYHDFATAMAKRRDATQLLEVTEGHHHHHH | not failed |
| MSLTFPTLSPTQIIQYIHLGSFLNAHNVDYIHNNNISSILLVGIEVPSLFKDQCDILRLDIVSEEGHQLYDSIPNAIKFIIRSIQRKEGVLIISGTGVNKAPAIVIAFLMYYQRLSFINAFNKVQGLYPLIDIESGFILQLKLFEKKLEKMNSEGHHHHHH | not failed |
| MSLTNDERILSWNETPSKPRYTPPPGAIDAHCHVFGPMAQFPFSPKAKYLPRDAGPDMLFALRDHLGFARNVIVQASCHGTDNAATLDAIARAQGKARGIAVVDPAIDEAELAALHEGGMRGIRFNFLKRLVDDAPKDKFLEVAGRLPAGWHVVIYFEADILEELRPFMDAIPVPIVIDHMGRPDVRQGPDGADMKAFRRLLDSREDIWFKATCPDRLDPAGPPWDDFARSVAPLVADYADRVIWGTDWPHPNMQDAIPDDGLVVDMIPRIAPTPELQHKMLVTNPMRLYWSEEMEGHHHHHH | not failed |
| MSLTNGEENEEVLFCEKAKLLIFDSDTKGYTSRGVGELKLLRKKDDKGKVRVLCRSEGMGHVLLNTSVVKSFKYQPIDADNENLIKWPIITDGKLETFIIKVKQKADGRRLVGAVADAQQAMEGHHHHHH | not failed |
| MSLTPRNATVAVIGAGDYIGAEIAKKFAAEGFTVFAGRRNGEKLAPLVAEIEAAGGRIVARSLDARNEDEVTAFLNAADAHAPLEVTIFNVGANVNFPILETTDRVFRKVWEMACWAGFVSGRESARLMLAHGQGKIFFTGATASLRGGSGFAAFASAKFGLRAVAQSMARELMPKNIHVAHLIIDSGVDTAWVRERREQMFGKDALANPDLLMPPAAVAGAYWQLYQQPKSAWTFEMEIRPYGEGHHHHHH | not failed |
| MSLTSVVFLNPGNSTETFWVSYSQFMQAAARDLGLDLRILYAERDPQNTLQQARELFQGRDKPDYLMLVNEQYVAPQILRLSQGSGIKLFIVNSPLTLDQRELIGQSRQNYSDWIGSMVGDDEEAGYRMLKELLHKLGPVPAGHGIELLAFSGLKVTPAAQLRERGLRRALAEHPQVHLRQLVYGEWNRERAYRQAQQLLKRYPKTQLVWSANDEMALGAMQAARELGRKPGTDLLFSGVNSSPEALQALIDGKLSVLEAGHFTLGGWALVALHDDALGLDARRLGGPDWQLSLFQALTPAQARQLLRLGDQVGTRVDFRGLSAQGKPDSYRYPFGLQLLLREGHHHHHH | not failed |
| MSLTTYDTQPSTLIRNAAAIMTGGRGTADDPSRVPGPDIRIVGDTIDAIGALAPRPGETIVDATDCVIYPAWVNTHHHLFQSLLKGEPAGLDATLTPWLAATPYRFRALFDERRFRLAARIGLIELARSGCATVADHNYVYYPGMPFDSSAILFEEAEKLGLRFVLLRGGATQTRQLEADLPTALRPETLDAYVADIERLAARYHDASPRAMRRVVMAPTTVLYSISPREMRETAAVARRLGLRMHSHLSETVGYQDSAYSMYGKSPVAFCGEHDWLGSDVWYAHLVKVDADEIALLAQTGTGVAHCPQSNGRLGSGICPVREMADAGVPVSIGVDGAASNEAADMISEVHMTWLAQRARLGMLAQPAYRGGSFEGGAGAASIAEVIHWGTAGGARVMGLDEVGKVAVGYAADIAVYRLDDPRYFGLHDPAIGPVASGGRPSVMALFSAGKRVVVDDLIEGVDIKELGGEARRVVRELLREVVVEGHHHHHH | not failed |
| MSLVLVDHPRPGVALITLNRPERMNSMAFDVMVPLKEALQKVTYDNAVRVVVLTGAGRGFSSGADHKSAGTVPHVEGLTRPTYALRSMEILDEVILALRRLHQPVIAAVNGPAIGGGLCLALAADIRVASTSAYFRAAGINNGLTASELGLSYLLPRAIGSSRAFEIMLTGRDVTAEEAERIGLVSCQVPEEQLLDTCYAIAARIAAFSRPGIELTKRTLWSGLDAGSLEGHMQAEGLGQLFVRLLTANFEEAVAARAERRPPVFTDDK | failed |
| MSLVSLPGLPAMISEISKRNNLPTTAVEEALREALLKGYERFRRSQLMGHQFPEEYFNNFEVELDTEEEGFRVLSTKRIVEEVENSDQQISLKEVLEVAEEAQLGDEVVLDVTPEQKDFGRMAAIQTKQVLLQKLRDQQRKIIQEEFQDLEGTVLNARALRFERQSIIVAVQSSFGQPEVEAELPKREQLPNDNYRANSTFRVYLKRVREGSQRGPQLVVSRAAAGLVVDLFSVEVPEIEEEVVRIVAVAREAKPPSPSVGPRTKIAVDTLERDVDPVGACIGARGSRIHAVVNELRGEKIDVIRWSPDPATYIAQALSPARVDQVYLIHAEERHALVIVAEDQLSLAIGKEGQNVRLAARLTGWKIDIKDPETYARDKEAIEQSILERAAASAQARAEREAAEQEAQAKLEAEMAALEAEEAEELEETPEAIAEVEEEVEEWDQDQGPELGEEEELSLEHHHHHH | not failed |
| MSLVTYQTIKVRFQASVCYITFHRPEANNTINDTLIEECLQVLNQCETSTVTVVVLEGLPEVFCFGADFQEIYQEMKRGRKQASSQEPLYDLWMKLQTGPYVTISHVRGKVNAGGLGFVSATDIAIADQTASFSLSELLFGLYPACVLPFLIRRIGRQKAHYMTLMTKPISVQEASEWGLIDAFDAESDVLLRKHLLRLRRLNKKGIAHYKQFMSSLDHQVSRAKATALTANQDMFSDPQNQMGIIRYVETGQFPWEDQEGHHHHHH | not failed |
| MSLYDLKPNEKGRIKDIKGDERLSKRLSALGFIEGTEVEVKMMAPLGDPILVNVRGFNIAIRKNDAKNIFLKEAKLEHHHHHH | not failed |
| MSLYTILVVDDSPMIVDVFVTMLERGGYRPITAFSGEECLEALNATPPDLVLLDIMMEPMDGWETLERIKTDPATRDIPVLMLTAKPLTPEEANEYGSYIEDYILKPTTHHQLYEAIEHVLARRHSIAADEGHHHHHH | not failed |
| MSMKRSREESQGGGNHNRFVDEGPRLNLPLTKTPELINKIESYLKVHYTCPHQQTENSSKTSTLPKSPEKLKAMNFPISTIKIGDCVFVAKNPDDIVAKFYFAKKKLLWEFLFGEPVANMPRLKSKIEIQWNDVSSFEESINSRDETGILKIELKKRPTFFTETNPQAGKHTQWKQLDYDFTGDQASYYRRHTLHFPPGVLQKNLEKLLTDSFWSKLYKVPFPVHESLYFDIGFENNNSSNGHSKTVGFNVNNGLQHDFSQVRDLKERKKIITLIGIGGVGEGEGNFSMANGGWQRNSYSHVNSLNYNTDNGLLGMQAIPPSSQVANEHYNNTQNDYTGSQFGYRMNQDEIQKMQRIGKILESQAYAVPDTQTKLTSSGMNNGPMYPPAGSYLESRLLEEWYEHTRRFQQ | not failed |
| MSMLKPSGLKAPTKILKPGSTALKTPTAVVAPVEKTISSEKASSTPSSETQEEFVDDFRVGERVWVNGNKPGFIQFLGETQFAPGQWAGIVLDEPIGKNDGSVAGVRYFQCEPLKGIFTRPSKLTRKV | not failed |
| MSMPILLLVAVILAIYAVAYLFYGRNILQEKVVRASPERETPAIAKFDGVDYVPAHRFVLFGHHFASIAGAGPIVGPAIAMAYGWLLPLVWVLFGNVFMGAVHDYLSLMASVRYGGISIVSVGENLMGRKARYLFLIYVLFTLILVYAAFASIAASLFARDPRVATLSILFMPLALLLGIMMYRMGLGMGPSTVITVVLVIAAFVYSYNHGIVIGTFDPSLPPGEGGWVAYHRWVIILGLYALLAASLPVWYLLQPRDYLNAYILWTGLGLAAIAAILLGTQSLKGPAYTSFQPNIIAGQPTPFWPAIPLIIACGSLSGFHSLVASGTTSKQLASELDALFVGYGAMLLEGALSGLAVIIPISFAWNAPELIQKGVIENNMLDLAAVPRYAVGYGYTLAKTFEMFGVGFDTGYSFFTLFASLMLSMYVLTTLDTGTRLARFAWQELFDWLANVDKNLYSIVTNKWVSSLAVVIIGSALAYPVLEIGAGYKAAYNVVWPAFAGANQMLAAIALLTSALWVYGVLNVRGGTGLLILLPSLFLWVTVTAGLTWWLMVILPVLPAIQQFGAGSMILFTLLLSLLLFALFIINFNKLSKQAGASQQAQA | failed |
| MSMQEMVTISIVTYNSRYIFNVLDQLKAELGTDSIYDIHIYDNHSETAYLEKLTTYEPFITIHRAEENQGFGHGHNQVLFNASTKYAIIFNPDVLVTKDVLDRLLNRIKIDKNIAVVSPKVLNEDGTTQYLVRQKLDVFDYMLRFIPFQFVKKIFDKRLSIYECRDLSDTETTDIKMGSGCFMLIDREKFVEIGGFDERFFMYFEDNDLCLRFGKAGYRILYTPFETVVHMYEKGAHKSRKLFKIFMQSMGKFFNKWGWRFFLEHHHHHH | not failed |
| MSMYNMDLDKVIRKINKKGARTVGLQFPEGLKMQAVKIAKAIESQTPATVIISGDPCFGACDVSDYKMKGSVDLIVHYGHTPLPLKYEVPTLFIEAFSNIDVKKDLEKCLEKLEDYSKIALVTTTQHLHLLNEIKDYLEDNGKEVVLGSSKNTKKGQVLGCNFSSIKNLDAEVYLFIGSGNFHPLGIYLFTKSPVLALDPYNSEIRDISAFADRILRIRFARITKAREAEKWGIIVSSKEGQYRMKLAKEIKKILEDNKMEAYIIMADNINPDILLPYMELDAFVVSACPRIAIDDSQMYKKPLLTPQELEIVLNKRQWENYQLDEILFHERYK | failed |
